Assay results published in article PMC10388305, “Synthesis and Evaluation of a Monomethyl Auristatin E—Integrin αvβ6 Binding Peptide–Drug Conjugate for Tumor Targeted Drug Delivery” (Journal of Medicinal Chemistry, 2023).
Like-named read-outs stand apart in the source and are kept apart here.

How the values were obtained:
[1] = Serum stability in mouse serum; type: in vitro ADME; conditions: 37 °C, ethanol precipitation, radio RP-HPLC
Procedure: The serum stability of [^64Cu]PDC-1 was measured in both human and mouse serum at 37 °C at 1, 4, and 24 h.
Mouse serum or human serum (0.5 mL) was combined with an aliquot of [^64Cu]PDC-1 (≤25 μL, 3.9–4.7 MBq) and incubated at 37 °C. At each time point (1, 4, and 24 h), an aliquot (50–200 μL) was taken, proteins precipitated with absolute ethanol and removed by centrifugation at 1500g for 4 min. The ethanol solution was diluted with water (1 mL) and analyzed by RP-HPLC.

[2] = Biodistribution, paired DX3puroβ6/DX3puro xenograft tumor mouse model; type: in vivo, mice; conditions: female, athymic nude, iv, total radioactivity, γ-counter, mean ± SD; for tissue uptake at 4 h / tissue uptake at 24 h / tissue uptake at 48 h: i.v.
Procedure: The biodistribution of [^64Cu]PDC-1 confirmed the αvβ6-selective tumor accumulation, with 4.46 ± 0.91% ID/g in the DX3puroβ6 (+) tumor at 4 h vs 0.56 ± 0.12% ID/g in the DX3puro (−) tumor (ratio = 8:1; Figure 6A, Table S3). […] For the BxPC-3 tumor, the uptake went from 4.61 ± 1.44% ID/g at 4 h to 3.73 ± 0.44 and 2.93 ± 0.80% ID/g, at 24 and 48 h, respectively (4 to 48 h: P = 0.054; Figure 6). […] Clearance from the blood was rapid, resulting in αvβ6 (+) tumor/blood ratios of ≥32:1 at 4 h (Table S5). [^64Cu]PDC-1 primarily cleared through the kidneys, from 50 to 64% ID/g at 4 h to ≤25% ID/g at 48 h (Figure 6). […] Accumulation in the liver remained steady between 1.5 and 2.2% ID/g at 4 to 48 h, and uptake in other organs such as muscle (≤0.9% ID/g) and pancreas (≤0.5% ID/g) was low at all time points (Figure 6).
All animal procedures conformed to the Animal Welfare Act and were approved by the University of California Davis Institutional Animal Care and Use Committee. All mice used for in vivo work were female athymic nude mice (6–8 weeks old) purchased from Charles River Laboratories (Wilmington, MA). For PET imaging and biodistribution studies, female athymic nude mice (6–8 weeks old) were injected subcutaneously with 3 × 10^6 DX3puro and 3 × 10^6 DX3puroβ6 cells in serum free DMEM on the right and left flank, respectively, or with 5 × 10^6 BxPC-3 cells in serum free RPMI 1640/Matrigel (1/1 v/v). Studies commenced once tumors reached a maximum diameter of ∼0.5 cm, approximately 3 weeks after inoculation. Food and water were available ad libitum. [^64Cu]PDC-1 was formulated in isotonic 0.9% saline to pH = 7.2 and administered intravenously (i.v.) via a catheter into the tail vein.
Aliquots of the formulated [^64Cu]PDC-1 in isotonic 0.9% saline (4.81–5.74 MBq, 1.7–2.1 μg, 0.26–0.31 nmol, 100 μL, pH 7.2) were injected i.v. as described above. Following the conscious uptake period, the mice were anesthetized (5% isoflurane), euthanized, and dissected (n ≥ 3/model/time point [4, 24, and 48 h]; the 48 h time point also included the imaging animals sacrificed after the PET scans). Tissues were collected, washed, weighed, and radioactivity measured in a γ-counter. Calibrated, decay-corrected radioactivity was expressed as the percentage of injected dose per gram of tissue (% ID/g). Data are reported as mean ± SD. The mean weights and standard deviation of the DX3puroβ6/DX3puro paired tumor model biodistribution mice were 24.3 ± 1.4 g at 4 h, 28.2 ± 2.9 g at 24 h, and 27.7 ± 2.6 g at 48 h. The mean weights and standard deviation of the BxPC-3 tumor model biodistribution mice were 25.1 ± 1.9 g at 4 h, 27.0 ± 1.1 g at 24 h and 27.1 ± 3.2 g at 48 h. For in vivo blocking studies, DOTA-2 (50 mg/kg, 205 nmol, 1.4 mg in 100 μL 0.9% saline) was injected i.v. into two animals/tumor model 10 min prior to [^64Cu]PDC-1. The animals were sacrificed after 4 h, tissues collected, washed, weighed, and radioactivity measured in a γ-counter. The mean weights and standard deviation for the blocking mice were 24.6 ± 0 and 27.9 ± 0.3 g for the DX3puroβ6/DX3puro paired and BxPC-3 tumor models, respectively.
Biodistribution data of [64Cu]PDC-1 in paired DX3puroβ6/DX3puro tumor model.
Table S3. Biodistribution of [ 64Cu]PDC-1 in mice bearing paired DX3puroβ6/DX3puro xenograft tumors.
Tissue uptake is expressed as the mean of the percentage of injected dose per gram of tissue ± standard
deviation (n = 4/ time point; n = 9 at 48 h); an = 3, bn = 8, cn = 7.

## CC[C@H](C)[C@@H]([C@@H](CC(=O)N1CCC[C@H]1[C@H](OC)[C@@H](C)C(=O)N[C@H](C)[C@@H](O)c1ccccc1)OC)N(C)C(=O)[C@@H](NC(=O)[C@H](C(C)C)N(C)C(=O)OCc1ccc(NC(=O)[C@H](CCCNC(N)=O)NC(=O)[C@@H](NC(=O)CCOCCOCCNC(=O)CCN2C(=O)CC(SC[C@H](NC(=O)CN3CCN(CC(=O)O)CCN(CC(=O)O)CCN(CC(=O)O)CC3)C(=O)NCCOCCOCCOCCOCCOCCOCCOCCOCCOCCOCCOCCOCCOCCOCCOCCOCCOCCOCCOCCOCCOCCOCCOCCOCCOCCOCCOCCOCCC(=O)N[C@@H](CC(N)=O)C(=O)N[C@@H](C)C(=O)N[C@H](C(=O)N3CCC[C@H]3C(=O)N[C@@H](CC(N)=O)C(=O)N[C@@H](CC(C)C)C(=O)N[C@@H](CCCNC(=N)N)C(=O)NCC(=O)N[C@@H](CC(=O)O)C(=O)N[C@@H](CC(C)C)C(=O)N[C@@H](CCC(N)=O)C(=O)N[C@H](C(=O)N[C@@H](CC(C)C)C(=O)N[C@@H](C)C(=O)N[C@@H](CCC(N)=O)C(=O)N[C@@H](CCCNC(=N)N)C(=O)N[C@H](C(=O)N[C@@H](C)C(=O)N[C@@H](CCCNC(=N)N)C(=O)N[C@H](C(=O)NCCOCCOCCOCCOCCOCCOCCOCCOCCOCCOCCOCCOCCOCCOCCOCCOCCOCCOCCOCCOCCOCCOCCOCCOCCOCCOCCOCCOCCC(N)=O)[C@@H](C)O)C(C)C)C(C)C)C(C)C)C2=O)C(C)C)cc1)C(C)C (stereo partly drawn) [[^64Cu]PDC-1, metal not drawn]
[1]; 1 h
  remaining at 1 h: 89%
[1]; 4 h
  remaining at 4 h: 49%
[1]; 24 h
  remaining at 24 h: 3%
[2]; DX3puro (αvβ6 −) tumor, 4 h p.i., n = 4, read-out: DX3puro (αvβ6 −) tumor uptake
  tissue uptake at 4 h: 0.56 ± 0.12 %ID/g
[2]; DX3puro (αvβ6 −) tumor, 24 h p.i., n = 3, read-out: DX3puro (αvβ6 −) tumor uptake
  tissue uptake at 24 h: 1.03 ± 0.12 %ID/g
[2]; DX3puro (αvβ6 −) tumor, 48 h p.i., n = 8, read-out: DX3puro (αvβ6 −) tumor uptake
  tissue uptake at 48 h: 0.74 ± 0.2 %ID/g
[2]; DX3puroβ6 (αvβ6 +) tumor, 4 h p.i., n = 4, read-out: DX3puroβ6 (αvβ6 +) tumor uptake
  tissue uptake at 4 h: 4.46 ± 0.91 %ID/g
[2]; DX3puroβ6 (αvβ6 +) tumor, 24 h p.i., n = 4, read-out: DX3puroβ6 (αvβ6 +) tumor uptake
  tissue uptake at 24 h: 3.39 ± 0.56 %ID/g
[2]; DX3puroβ6 (αvβ6 +) tumor, 48 h p.i., n = 9, read-out: DX3puroβ6 (αvβ6 +) tumor uptake
  tissue uptake at 48 h: 2.53 ± 0.37 %ID/g
[2]; bladder, 4 h p.i., n = 4, read-out: Bladder uptake
  tissue uptake at 4 h: 2.12 ± 0.62 %ID/g
[2]; bladder, 24 h p.i., n = 4, read-out: Bladder uptake
  tissue uptake at 24 h: 1.65 ± 0.44 %ID/g
[2]; bladder, 48 h p.i., n = 9, read-out: Bladder uptake
  tissue uptake at 48 h: 1.66 ± 0.28 %ID/g
[2]; blood, 4 h p.i., n = 4, read-out: Blood uptake
  tissue uptake at 4 h: 0.14 ± 0.02 %ID/g
[2]; blood, 24 h p.i., n = 4, read-out: Blood uptake
  tissue uptake at 24 h: 0.29 ± 0.03 %ID/g
[2]; blood, 48 h p.i., n = 9, read-out: Blood uptake
  tissue uptake at 48 h: 0.34 ± 0.09 %ID/g
[2]; bone, 4 h p.i., n = 4, read-out: Bone uptake
  tissue uptake at 4 h: 0.43 ± 0.18 %ID/g
[2]; bone, 24 h p.i., n = 4, read-out: Bone uptake
  tissue uptake at 24 h: 0.38 ± 0.08 %ID/g
[2]; bone, 48 h p.i., n = 9, read-out: Bone uptake
  tissue uptake at 48 h: 0.33 ± 0.1 %ID/g
[2]; brain, 4 h p.i., n = 4, read-out: Brain uptake
  tissue uptake at 4 h: 0.04 ± 0.01 %ID/g
[2]; brain, 24 h p.i., n = 4, read-out: Brain uptake
  tissue uptake at 24 h: 0.07 ± 0.01 %ID/g
[2]; brain, 48 h p.i., n = 9, read-out: Brain uptake
  tissue uptake at 48 h: 0.09 ± 0.03 %ID/g
[2]; gall bladder, 4 h p.i., n = 4, read-out: Gall bladder uptake
  tissue uptake at 4 h: 3.64 ± 0.79 %ID/g
[2]; gall bladder, 24 h p.i., n = 4, read-out: Gall bladder uptake
  tissue uptake at 24 h: 3.16 ± 0.49 %ID/g
[2]; gall bladder, 48 h p.i., n = 9, read-out: Gall bladder uptake
  tissue uptake at 48 h: 1.42 ± 0.63 %ID/g
[2]; heart, 4 h p.i., n = 4, read-out: Heart uptake
  tissue uptake at 4 h: 0.82 ± 0.17 %ID/g
[2]; heart, 24 h p.i., n = 4, read-out: Heart uptake
  tissue uptake at 24 h: 0.84 ± 0.15 %ID/g
[2]; heart, 48 h p.i., n = 9, read-out: Heart uptake
  tissue uptake at 48 h: 0.85 ± 0.18 %ID/g
[2]; kidney, 4 h p.i., n = 4, read-out: Kidney uptake
  tissue uptake at 4 h: 63.9 ± 12.5 %ID/g
[2]; kidney, 24 h p.i., n = 4, read-out: Kidney uptake
  tissue uptake at 24 h: 41.2 ± 4.47 %ID/g
[2]; kidney, 48 h p.i., n = 9, read-out: Kidney uptake
  tissue uptake at 48 h: 22.9 ± 5.48 %ID/g
[2]; large intestines, 4 h p.i., n = 4, read-out: Lg. Intestines uptake
  tissue uptake at 4 h: 6.25 ± 0.74 %ID/g
[2]; large intestines, 24 h p.i., n = 4, read-out: Lg. Intestines uptake
  tissue uptake at 24 h: 3.98 ± 0.83 %ID/g
[2]; large intestines, 48 h p.i., n = 9, read-out: Lg. Intestines uptake
  tissue uptake at 48 h: 3.04 ± 0.73 %ID/g
[2]; liver, 4 h p.i., n = 4, read-out: Liver uptake
  tissue uptake at 4 h: 1.34 ± 0.29 %ID/g
[2]; liver, 24 h p.i., n = 4, read-out: Liver uptake
  tissue uptake at 24 h: 2.25 ± 0.59 %ID/g
[2]; liver, 48 h p.i., n = 9, read-out: Liver uptake
  tissue uptake at 48 h: 2.15 ± 0.62 %ID/g
[2]; lung, 4 h p.i., n = 4, read-out: Lung uptake
  tissue uptake at 4 h: 3.08 ± 0.78 %ID/g
[2]; lung, 24 h p.i., n = 4, read-out: Lung uptake
  tissue uptake at 24 h: 2.19 ± 0.42 %ID/g
[2]; lung, 48 h p.i., n = 9, read-out: Lung uptake
  tissue uptake at 48 h: 1.71 ± 0.44 %ID/g
[2]; muscle, 4 h p.i., n = 4, read-out: Muscle uptake
  tissue uptake at 4 h: 0.89 ± 0.11 %ID/g
[2]; muscle, 24 h p.i., n = 4, read-out: Muscle uptake
  tissue uptake at 24 h: 0.56 ± 0.07 %ID/g
[2]; muscle, 48 h p.i., n = 9, read-out: Muscle uptake
  tissue uptake at 48 h: 0.48 ± 0.14 %ID/g
[2]; pancreas, 4 h p.i., n = 4, read-out: Pancreas uptake
  tissue uptake at 4 h: 0.36 ± 0.07 %ID/g
[2]; pancreas, 24 h p.i., n = 4, read-out: Pancreas uptake
  tissue uptake at 24 h: 0.45 ± 0.05 %ID/g
[2]; pancreas, 48 h p.i., n = 9, read-out: Pancreas uptake
  tissue uptake at 48 h: 0.52 ± 0.25 %ID/g
[2]; skin, 4 h p.i., n = 4, read-out: Skin uptake
  tissue uptake at 4 h: 1.96 ± 0.5 %ID/g
[2]; skin, 24 h p.i., n = 4, read-out: Skin uptake
  tissue uptake at 24 h: 1.26 ± 0.36 %ID/g
[2]; skin, 48 h p.i., n = 9, read-out: Skin uptake
  tissue uptake at 48 h: 1 ± 0.34 %ID/g
[2]; small intestines, 4 h p.i., n = 4, read-out: Sm. Intestines uptake
  tissue uptake at 4 h: 4.67 ± 0.66 %ID/g
[2]; small intestines, 24 h p.i., n = 4, read-out: Sm. Intestines uptake
  tissue uptake at 24 h: 2.73 ± 0.28 %ID/g
[2]; small intestines, 48 h p.i., n = 9, read-out: Sm. Intestines uptake
  tissue uptake at 48 h: 1.53 ± 0.21 %ID/g
[2]; spleen, 4 h p.i., n = 4, read-out: Spleen uptake
  tissue uptake at 4 h: 0.21 ± 0.08 %ID/g
[2]; spleen, 24 h p.i., n = 4, read-out: Spleen uptake
  tissue uptake at 24 h: 0.58 ± 0.03 %ID/g
[2]; spleen, 48 h p.i., n = 9, read-out: Spleen uptake
  tissue uptake at 48 h: 0.54 ± 0.12 %ID/g
[2]; stomach, 4 h p.i., n = 4, read-out: Stomach uptake
  tissue uptake at 4 h: 8.97 ± 0.76 %ID/g
[2]; stomach, 24 h p.i., n = 4, read-out: Stomach uptake
  tissue uptake at 24 h: 4.86 ± 0.56 %ID/g
[2]; stomach, 48 h p.i., n = 9, read-out: Stomach uptake
  tissue uptake at 48 h: 3 ± 0.56 %ID/g
[2]; urine, 4 h p.i., n = 4
  excreta dose per gram or mL at 4 h: 13 ± 2.4 %ID/g
[2]; urine, 24 h p.i., n = 4
  excreta dose per gram or mL at 24 h: 4.57 ± 0.87 %ID/g
[2]; urine, 48 h p.i., n = 7
  excreta dose per gram or mL at 48 h: 1.6 ± 0.47 %ID/g
